Data set [1] concerns the target T1, IL-11Δ10/IL-11Rα_(D1-D3) binary complex (human, UniProt P20809 32-199; Q14626 23-319).
T1 construct: IL-11, human, IL-11Δ10, as m1; numbers count on: the mature protein; IL-11Rα, human, D1-D3, as m8; m1 with m8; also called IL-11Rα_(D1-D3)/IL-11Δ10 binary complex; binary IL-11/IL-11Rα complex; source: formed from the purified proteins (IL-11Δ10 from E. coli, IL-11Rα_(D1-D3) from Sf21); in ITC by titrating the cytokine into IL-11Rα; not shown: His6, N-terminal, cleaved; His8, N-terminal, cleaved; …
T1 sequence 1: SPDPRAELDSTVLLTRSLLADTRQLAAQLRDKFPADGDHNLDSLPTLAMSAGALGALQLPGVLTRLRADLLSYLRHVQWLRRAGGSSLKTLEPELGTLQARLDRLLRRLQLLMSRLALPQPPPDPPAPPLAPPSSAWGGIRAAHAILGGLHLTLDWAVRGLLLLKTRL
T1 sequence 2: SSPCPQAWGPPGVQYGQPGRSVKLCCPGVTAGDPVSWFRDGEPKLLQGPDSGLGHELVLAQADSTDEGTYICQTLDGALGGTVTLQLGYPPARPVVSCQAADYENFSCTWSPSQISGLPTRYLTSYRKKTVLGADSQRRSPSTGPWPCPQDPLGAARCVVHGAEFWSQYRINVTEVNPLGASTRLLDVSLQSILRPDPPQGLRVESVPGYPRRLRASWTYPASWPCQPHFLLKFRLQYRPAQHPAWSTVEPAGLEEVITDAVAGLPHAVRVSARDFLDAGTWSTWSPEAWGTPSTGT
The data set can be described thus: ITC; gp130 in the syringe titrated against the cytokine/IL-11Rα_(D1-D3) complex formed in the cell, 288 K, TBS pH 8.5, 1:1 interaction model, n = 3. In general terms: ITC needs no label: the signal is the heat of the interaction.

The target of data set [2] is IL-11_(Δ10/W147A)/IL-11Rα_(D1-D3) binary complex (human) (UniProt P20809). The description is as above.
Data set [3] addresses IL-11_(Δ10/PAIDY)/IL-11Rα_(D1-D3) binary complex (human) (UniProt P20809). The data set is described as above.
Data set [4] has as its target T2, IL-11Rα_(D1-D3) (human, UniProt Q14626 23-319, N-linked glycans (N105, N172 seen in the structures)).
T2 construct: Secreted with a honeybee-melittin signal peptide; also called C-terminally truncated form of IL-11Rα; not shown: His8, N-terminal, cleaved
T2 sequence: T1 sequence 2
The data set can be described thus: ITC; cytokine in the syringe (10-fold above IL-11Rα), IL-11Rα_(D1-D3) in the cell at 10 μM, TBS pH 8.5, 1:1 interaction model, n = 3. Conditions: both partners purified.

The next data set deals with T3, IL-11Ralpha D1-D3 (Homo sapiens, UniProt Q14626).
T3 chain: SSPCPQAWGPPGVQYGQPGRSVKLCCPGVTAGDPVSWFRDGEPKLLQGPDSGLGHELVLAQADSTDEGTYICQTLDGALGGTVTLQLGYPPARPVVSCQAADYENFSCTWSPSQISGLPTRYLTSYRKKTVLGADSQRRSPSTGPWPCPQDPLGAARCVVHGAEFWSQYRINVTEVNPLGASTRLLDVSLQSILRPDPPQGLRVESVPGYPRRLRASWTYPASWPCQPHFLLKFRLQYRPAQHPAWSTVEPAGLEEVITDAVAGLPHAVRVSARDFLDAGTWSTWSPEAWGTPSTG
The data set is described as follows: ITC.

Data set [5] has as its target T2, IL-11Rα_(D1-D3). The data set is described as follows: SPR; Biacore T200, 25 °C, TBS pH 8.5 + 0.05% Tween, 30 μL/min; biotinylated IL-11-avi on a streptavidin chip, IL-11Rα_(D1-D3) flowed over (two-fold dilutions from 500 nM), 1:1 kinetic model, n = 2. The conditions noted are these: both partners purified. For orientation: Surface plasmon resonance follows binding to a sensor surface in real time, without labels.

For data set [6], the target named is T4, IL-11RαD1-D3 (C-terminally truncated form of human IL-11Rα, structured extracellular domains D1-D3) (human, UniProt Q14626 23-319).
T4 construct: interleukin 11 receptor subunit alpha, human, domains D1-D3 (C-terminally truncated extracellular region); Expressed with a honeybee-melittin signal peptide; not shown: His8, N-terminal, cleaved
T4 sequence: T1 sequence 2
The data set is described as follows: SPR; Biacore T200; biotinylated IL-11-avi constructs immobilised on a streptavidin chip; IL-11RαD1-D3 injected, two-fold dilutions from 500 nM; 25 °C (298 K); TBS pH 8.5 + 0.05% Tween; 30 μL/min; 1:1 kinetic model; n = 2. Conditions: both partners purified.

The target of another data set is T5, IL-11Rα D1-D3 (human, UniProt Q14626 23-319).
T5 construct: interleukin 11 receptor subunit alpha, human, C-terminally truncated form with the structured extracellular domains D1-D3; Secreted with a honeybee-melittin signal peptide; tag removed with TEV protease; N-glycosylated; also called IL11RA; RA; not shown: His8, N-terminal, cleaved
T5 sequence: T1 sequence 2
The data set can be described thus: SPR; biotinylated IL-11Δ10-avi or IL-11Δ10/Mutein-avi immobilised on a streptavidin chip (SAHC 1500M); IL-11Rα D1-D3 flowed over, nine-point two-fold dilution series from 500 nM; Biacore T200, 25 °C, TBS pH 8.5 + 0.05% Tween, 30 uL/min; 1:1 kinetic model; two replicate dilution series (run 1, run 2). Conditions: both partners purified.

Data set [7] deals with the molecule itself. The data set can be described thus: cell-based or functional assay.
Data set [8] concerns the molecule itself. The data set is described as follows: AUC; sedimentation velocity, 50,000 rpm, 20 °C, c(s) model with floating frictional ratio (SEDFIT).
Data set [9] addresses T2, IL-11Rα_(D1-D3). The data set can be described thus: cell-based or functional assay.

Numbering of substitutions follows the chain as printed. Names may count otherwise. “And” between values parts separate entries of the source, which are not always exact repeats. Equal entries are not always repeated. Where two headings read alike, the source gives them in different places.

One may read the Kd as a measure of binding affinity in units of concentration. On to gp130_(D2-D3) (receptor), for which the figures for the Kd in data set [1], in [2] and in [3] were 380 nM, 130 nM and 60 nM, respectively. In [1], this molecule yielded a dH of 6.45 kcal/mol.

B1: gp130EC (receptor, human, UniProt P40189 23-619, looked up)
chain: ELLDPCGYISPESPVVQLHSNFTAVCVLKEKCMDYFHVNANYIVWKTNHFTIPKEQYTIINRTASSVTFTDIASLNIQLTCNILTFGQLEQNVYGITIISGLPPEKPKNLSCIVNEGKKMRCEWDGGRETHLETNFTLKSEWATHKFADCKAKRDTPTSCTVDYSTVYFVNIEVWVEAENALGKVTSDHINFDPVYKVKPNPPHNLSVINSEELSSILKLTWTNPSIKSVIILKYNIQYRTKDASTWSQIPPEDTASTRSSFTVQDLKPFTEYVFRIRCMKEDGKGYWSDWSEEASGITYEDRPSKAPSFWYKIDPSHTQGYRTVQLVWKTLPPFEANGKILDYEVTLTRWKSHLQNYTVNATKLTVNLTNDRYLATLTVRNLVGKSDAAVLTIPACDFQATHPVMDLKAFPKDNMLWVEWTTPRESVKKYILEWCVLSDKAPCITDWQQEDGTVHRTYLRGNLAESKCYLITVTPVYADGPGSPESIKAYLKQAPPSKGPTVRTKKVGKNEAVLEWDQLPVDVQNGFIRNYTIFYRTIIGNETAVNVDSSHTEYTLSSLTSDTLYMVRMAAYTDEGGKDGPEFTFTTPKFAQGEIE
modifications: N-linked glycans (N21, N61, N135 seen in the structures)
notes: Secreted with a honeybee-melittin signal peptide; D5-D6 are not in the deposited model 8DPT; also called complete extracellular domains of gp130; D1-D6 domains of gp130; not shown: His8, N-terminal, cleaved
B1: the dH in [1] (both partners purified) is -4.78 kcal/mol.

B2: IL-11_(Δ10/W147A) (ligand, human)
chain: T1 sequence 1 with W137A
notes: interleukin 11 (IL-11), human, IL-11Δ10 with W147A; numbers count on: the mature protein; also called IL-11 W147A; W147A mutant; not shown: His6, N-terminal, cleaved
With B2, the Kd in the data set with IL-11Rα_(D1-D3) [4] was 10 nM; with IL-11Ralpha D1-D3 it was 10.4 nM.

B3: biotinylated IL-11Δ10-avi (ligand, human)
chain: T1 sequence 1
modifications: biotin on the C-terminal avitag
notes: interleukin 11 (IL-11), human, N-terminally truncated form IL-11Δ10; numbers count on: the mature protein; source: E. coli BL21(DE3), biotinylated, purified as IL-11Δ10; not shown: His6, N-terminal, cleaved; avitag, C-terminal, kept
By koff is commonly meant the first-order rate constant of dissociation. Consider B3, for which the koff in the data set with IL-11Rα_(D1-D3) [5] stood at 0.11 s⁻¹.

B4: biotinylated IL-11Δ10-avi (ligand, human)
chain: T1 sequence 1
modifications: biotin on the C-terminal avitag
notes: interleukin 11, human, N-terminally truncated form (Δ10), as Dm1; numbers count on: the mature protein; also called IL11Δ10 - Avitag; source: E. coli BL21(DE3), biotinylated in the cells, purified as IL-11Δ10; not shown: avitag, C-terminal, kept; His6, N-terminal, cleaved
One may read the kon as the rate constant with which the complex forms. Regarding B4, in [6], the Kd amounted to 78 nM and the kon was 1.4e+06 M⁻¹ s⁻¹.

B5: biotinylated IL-11_(Δ10/Mutein)-avi (ligand, human)
chain: T1 sequence 1 with A48P, M49A, S50I, A51D, G52Y, W137A
modifications: biotin on the C-terminal avitag
notes: interleukin 11 (IL-11), human, IL-11Δ10 with W147A and 58-62 AMSAG changed to PAIDY; numbers count on: the mature protein; source: E. coli BL21(DE3), biotinylated, purified as IL-11Δ10; not shown: His6, N-terminal, cleaved; avitag, C-terminal, kept
Regarding B5, the koff with IL-11Rα_(D1-D3) [5] stood at 0.034 s⁻¹.

B6: biotinylated IL-11Δ10/Mutein-avi (ligand, human)
chain: T1 sequence 1 with A48P, M49A, S50I, A51D, G52Y, W137A
modifications: biotin on the C-terminal avitag
notes: interleukin 11, human, N-terminally truncated form IL-11Δ10 with the Mutein changes; numbers count on: the mature protein; not shown: His6, N-terminal, cleaved; avitag, C-terminal, kept
Take B6: in the data set with IL-11Rα D1-D3, the Kd is 35.8 nM and 30.8 nM and 33.3 nM; the koff is 0.035 s⁻¹ and 0.0335 s⁻¹; the kon is 937000 M⁻¹ s⁻¹ and 1.14e+06 M⁻¹ s⁻¹ and 1.04e+06 M⁻¹ s⁻¹.

B7: biotinylated IL-11Δ10/Mutein-avi (ligand, human)
chain: T1 sequence 1 with A48P, M49A, S50I, A51D, G52Y, W137A
modifications: biotin on the C-terminal avitag
notes: interleukin 11, human, Δ10 with W147A and 58PAIDY62, as Dm7; numbers count on: the mature protein; also called IL11Δ10/Mutein - Avitag; source: E. coli BL21(DE3), biotinylated in the cells, purified as IL-11Δ10; not shown: avitag, C-terminal, kept; His6, N-terminal, cleaved
For the molecule B7, in data set [6], the Kd is 33 nM and the kon was 1e+06 M⁻¹ s⁻¹.

B8: IL-11_(Δ10/W147A)/IL-11Rα_(D1-D3)/gp130_(D1-D3) trimer (complex, human)
chain 1: T1 sequence 1 with W137A
chain 2: T1 sequence 2
chain 3: GELLDPCGYISPESPVVQLHSNFTAVCVLKEKCMDYFHVNANYIVWKTNHFTIPKEQYTIINRTASSVTFTDIASLNIQLTCNILTFGQLEQNVYGITIISGLPPEKPKNLSCIVNEGKKMRCEWDGGRETHLETNFTLKSEWATHKFADCKAKRDTPTSCTVDYSTVYFVNIEVWVEAENALGKVTSDHINFDPVYKVKPNPPHNLSVINSEELSSILKLTWTNPSIKSVIILKYNIQYRTKDASTWSQIPPEDTASTRSSFTVQDLKPFTEYVFRIRCMKEDGKGYWSDWSEEASGITYEDR
As for B8, in [7], the “EC50 of STAT3 activation (pSTAT3, flow cytometry) by IL-11_(Δ10/W147A) in Ba/F3 cells stably expressing human gp130 and IL-11Rα” value was 610 pM.

B9: biotinylated IL-11Δ10-avi (ligand, human)
chain: T1 sequence 1
modifications: biotin on the C-terminal avitag
notes: interleukin 11, human, N-terminally truncated form IL-11Δ10; numbers count on: the mature protein; also called IL11d10; not shown: His6, N-terminal, cleaved; avitag, C-terminal, kept
For B9, in the data set with IL-11Rα D1-D3, the Kd was 78.5 nM and 77.1 nM and 77.8 nM; the koff is 0.0943 s⁻¹ and 0.125 s⁻¹; the kon was 1.2e+06 M⁻¹ s⁻¹ and 1.61e+06 M⁻¹ s⁻¹ and 1.41e+06 M⁻¹ s⁻¹.

B10: IL-11Δ10/IL-11Rα_(D1-D3)/gp130EC trimer (complex, human)
chain 1: T1 sequence 1
chain 2: T1 sequence 2
chain 3: B1 chain
notes: IL-11, human, IL-11Δ10, as m1; numbers count on: the mature protein; IL-11Rα, human, D1-D3, as m8; gp130, human, D1-D6, as m12; Two such trimers associate to the hexamer; also called one half of the gp130EC complex; source: equimolar mix of the purified proteins; not shown: His6, N-terminal, cleaved; His8, N-terminal, cleaved; copies: 1 + 1 + 1
As for B10, the binding result in data set [8] is given as “binds”.

B11: IL-11_(Δ10/Mutein) (ligand, human)
chain: T1 sequence 1 with A48P, M49A, S50I, A51D, G52Y, W137A
notes: interleukin 11 (IL-11), human, IL-11Δ10 with W147A and AB loop residues 58-62 AMSAG changed to PAIDY; numbers count on: the mature protein; Parent construct IL-11Δ10; also called IL-11 Mutein; not shown: His6, N-terminal, cleaved
In the case of B11, the “IC50 of inhibition of IL-11Δ10 (20 ng/mL) mediated STAT3 activation (pSTAT3, flow cytometry) in Ba/F3 cells stably expressing human gp130 and IL-11Rα; competes with IL-11 for IL-11Rα and gp130” value with IL-11Rα_(D1-D3) [9] was 850 nM. In the data set with IL-11Rα_(D1-D3) [4], this molecule showed a Kd of 38 nM.

The values are drawn from paper PMC10662374, “Structures of the interleukin 11 signalling complex reveal gp130 dynamics and the inhibitory mechanism of a cytokine variant” (Nature Communications, 2023).
